# Measurements taken from PMC2632915.
# What was measured:
# [1] = molecular target: Hera_208–419 (C-terminal RecA domain and dimerization domain of T. thermophilus Hera) (Thermus thermophilus); experiment: SEC
# [2] = molecular target: Hera_208–419 (C-terminal RecA domain and dimerization domain of T. thermophilus Hera) (Thermus thermophilus); experiment: crystal structure
# [3] = molecular target: Hera_208–419 (C-terminal RecA domain and dimerization domain of T. thermophilus Hera) (Thermus thermophilus); experiment: SEC; remark: listed apart in the source
# [4] = molecular target: Hera_208–510 (C-terminal RecA domain, dimerization domain and RNA-binding domain of T. thermophilus Hera) (Thermus thermophilus); experiment: SEC
substance,measurement,setting,value
Hera_208–419 (C-terminal RecA domain and dimerization domain of T. thermophilus Hera) (domain or fragment),stoichiometry N,[1],2
same,stoichiometry N,[2],2
same,stoichiometry N,[3],2
"Hera_208–510 (C-terminal RecA domain, dimerization domain and RNA-binding domain of T. thermophilus Hera) (domain or fragment)",stoichiometry N,[4],2
